T1: mIL1RAcP-Fc (murine, UniProt Q61730 21-359)
T1 construct: also called P013_04; P013-04
T1 sequence (looked up): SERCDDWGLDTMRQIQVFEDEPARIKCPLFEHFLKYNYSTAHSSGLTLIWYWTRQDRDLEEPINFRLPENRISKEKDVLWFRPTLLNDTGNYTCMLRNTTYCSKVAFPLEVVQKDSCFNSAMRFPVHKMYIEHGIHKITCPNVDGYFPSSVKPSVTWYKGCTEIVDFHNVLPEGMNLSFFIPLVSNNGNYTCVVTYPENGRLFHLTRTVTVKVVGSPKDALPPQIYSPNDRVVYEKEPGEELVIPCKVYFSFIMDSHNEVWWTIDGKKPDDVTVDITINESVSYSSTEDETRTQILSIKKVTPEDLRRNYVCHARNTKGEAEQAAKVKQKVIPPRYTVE

T2: rhIL-1RAcP/Fc Chimera (human, UniProt Q9NPH3 21-359)
T2 construct: also called P013_03; P013-03
T2 sequence (looked up): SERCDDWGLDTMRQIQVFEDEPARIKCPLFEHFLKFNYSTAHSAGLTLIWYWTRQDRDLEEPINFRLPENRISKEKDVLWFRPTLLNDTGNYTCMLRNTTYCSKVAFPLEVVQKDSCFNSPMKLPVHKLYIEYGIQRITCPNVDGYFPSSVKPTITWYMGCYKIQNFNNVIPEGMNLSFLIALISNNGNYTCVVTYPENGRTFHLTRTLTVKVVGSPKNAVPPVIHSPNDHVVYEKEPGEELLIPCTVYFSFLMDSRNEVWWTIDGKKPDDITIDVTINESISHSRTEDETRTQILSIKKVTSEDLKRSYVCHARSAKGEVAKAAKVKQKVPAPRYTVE

T3: human IL-1RAcP on 293T/17-FR cells (human, UniProt Q9NPH3 21-570)
T3 sequence (looked up): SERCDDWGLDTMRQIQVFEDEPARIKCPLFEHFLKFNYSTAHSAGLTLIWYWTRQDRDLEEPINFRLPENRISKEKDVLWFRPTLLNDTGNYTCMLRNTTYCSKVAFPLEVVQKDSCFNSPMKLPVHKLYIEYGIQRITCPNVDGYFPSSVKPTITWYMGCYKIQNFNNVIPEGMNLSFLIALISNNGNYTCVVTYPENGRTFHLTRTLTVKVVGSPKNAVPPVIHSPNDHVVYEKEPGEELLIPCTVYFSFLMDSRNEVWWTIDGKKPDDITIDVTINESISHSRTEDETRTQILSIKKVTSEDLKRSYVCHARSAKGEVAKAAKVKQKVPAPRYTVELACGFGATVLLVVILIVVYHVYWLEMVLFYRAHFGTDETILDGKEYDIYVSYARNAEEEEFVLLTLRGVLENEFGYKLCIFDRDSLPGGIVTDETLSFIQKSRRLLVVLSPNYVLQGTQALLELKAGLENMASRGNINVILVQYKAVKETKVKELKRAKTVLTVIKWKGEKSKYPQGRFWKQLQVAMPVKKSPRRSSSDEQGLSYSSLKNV


Assays:
mIL1RAcP-Fc [1] = target: T1, mIL1RAcP-Fc; assay: ELISA, primary supernatant, coated mu-IL-1RAcP-Fc
rhIL-1RAcP/Fc Chimera [2] = target: T2, rhIL-1RAcP/Fc Chimera; assay: ELISA, recombinant purified mAb
rhIL-1RAcP/Fc Chimera [3] = target: T2, rhIL-1RAcP/Fc Chimera; assay: ELISA, primary supernatant, coated hu-IL-1RAcP-Fc
How it was run: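 Plates coated with 0.5 μg/mL Fc-tagged human IL-1RAcP; rabbit B-cell supernatant antibodies detected by peroxidase anti-rabbit IgG Fab2 and TMB, absorbance 450/620 nm. Parallel IL12Rβ1-Fc coating served as counterscreen to exclude tag binders.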

[4] = target: T3, human IL-1RAcP on 293T/17-FR cells; assay: cell-based or functional assay
mIL1RAcP-Fc [5] = target: T1, mIL1RAcP-Fc; assay: ELISA, recombinant purified mAb

Row | Binder | mu-IL1RaP ELISA (OD) (mIL1RAcP-Fc [1]) | EC50 (rhIL-1RAcP/Fc Chimera [2]) [µg/mL] | hu-IL1RaP ELISA (OD) (rhIL-1RAcP/Fc Chimera [3]) | functional reporter gene assay (% inhibition), 0.04 µg/mL mAb [4] [%] | functional reporter gene assay (% inhibition), 0.2 µg/mL mAb [4] [%] | functional reporter gene assay (% inhibition), 1 µg/mL mAb [4] [%] | functional reporter gene assay (% inhibition), 5 µg/mL mAb [4] [%] | primary supernatant functional assay (% inh.), NF-kB luciferase reporter [4] [%] | EC50 (mIL1RAcP-Fc [5]) [µg/mL]
1 | P013.S.01.B.E03 (antibody, V domains shown, rabbit monoclonal antibody; also called P013.A.00015.E03) VH: QSLEESGGRLVTPGTPLTLTCTASGFSITNYHISWVRQAPGKGLEWIGYIYAGRDFTYYANWAEGRFTISKTSTTVDLQVTVPTTEDTATYFCARDGGSPNWTLDLWGQGTLVTVSS VL: DVVMTQTPASVSEPVGGTVTINCQASESISDYLSWYQQKPGQPPKLLIYRASTLESGVSSRFKGSGSGTQFTLTISDLESADAATYYCQSNYYDSRGNAFGGGTEVVVK | 0.1 | 0.05 | 3.4 | 54 | 63 | 60 | 68 | 73 | 
2 | P013.S.02.B.D05 (antibody, V domains shown, rabbit monoclonal antibody; also called P013.A.00086.B09) VH: QQQLVESGGGLVKPGASLTLTCKASGFSFSSGYYMCWVRQAPGKGLEWIACIGMGSGKTYYASWAKGRFTISKTSSTTVTLQMTSLTAADTATYFCARKDGSGNEHYNLWGPGTLVTVSS VL: DIVMTQTPASVEAAVGGTVTIRCQASQSISSYLAWYQRKPGQPPKVLIYKASTLASGVSSRFKGSGSGTEYTLTISDLESADAATYYCQQGYASSGVDNVFGGGTEVVVK | 3.3 |  | 3.2 | 1 | 19 | 20 | 13 | 42 | 0.206
3 | P013.S.02.B.E01 (antibody, V domains shown, rabbit monoclonal antibody; also called P013.A.00013.G07) VH: QSLEESGGRLVTPGTPLTLTCTVSGFSLSIYGMGWVRQAPGEGLEWIGSISSGGSTYYATWAKGRFTISKTSSTTLDLKITSPTTEDTATYFCVRSDGYTNGDYDTYFNLWGQGTLVTVS VL: DIVMTQTPASVSEPVGGTVTIRCQASQSISSWLSWYQQKPGQPPKLLIYQASALASGVSSRFIGSGYGTEFTLTISGVQSEDAATYYCQCTYGIGSNSDYGVAFGGGTEVVVK | -0.1 | 0.137 | 3.7 | -6 | 14 | 56 | 86 | 79 | 
4 | P013.S.02.B.E02 (antibody, V domains shown, rabbit monoclonal antibody; also called P013.A.00087.E09) VH: QSVEESGGRLVTPGTPLTLTCTVSGFSLNVYNMGWVRQAPGKGLEYIGIISSSGTTYYASWAKGRFTISKTSSTTVDLKITSLTTEDTATYFCARADGYTEGDYATYFNLWGQGTLVTVSS VL: DIVMTQTPASVSEPVGGTVTIKCQASQSITTWLAWYQQKPGQPPKLLIYQASALASGVSSRFIGSGYGTEFTLTISGVQSEDAATYYCQCTYGIGSGSSYGVAFGGGTEVVVK | 0 | 0.59 | 3.3 | 0 | 14 | 21 | 68 | 85 | 
5 | P013.S.01.B.B04 (antibody, V domains shown, rabbit monoclonal antibody; also called P013.A.00086.E02) VH: QSVEESGGRLVTPGTPLTLTCTVSGIDLDNYAMGWVRQAPGKGLEYIGVISSDGFFYDASWAKGRFTISKASSTTVDLKMTGLTPEDTATYFCARDRGTSTGSLDLWGQGTLVTVSS VL: ALVMTQTPASVSEPVGGTVTIKCQASENIGNGLAWYQQKPGQPPNLLIYGASTLASGVPSRFSGSGYGTEFTLTVSDLESGDAATYYCQCTYWNPDYIGGAFGGGTEVVVT | 0.5 | 0.042 | 3.5 | 42 | 83 | 93 | 99 | 97 | 
6 | P013.S.01.B.E05 (antibody, V domains shown, rabbit monoclonal antibody; also called P013.A.00086.F02) VH: QSLEESGGDLVKPGASLTLTCTASGISFSSSDFMCWVRQAPGKGLEWIACIYAGSSVSIYYATWAKGRFTISKASSTTVTLQMASLTVADTATYFCARSTGSVGRGFNLWGQGTLVTVSS VL: AQVLTQTPSPVSAAVGGTVTISCQASQSVYNSNHLSWYQQKPGQPPRLLIYSASTLASGVPSRFKGSGSGTQFTLTISGVQSDDAATYYCQGEFSCVSADCIAFGGGTEVVVK | -0.1 | 0.966 | 3.6 | 26 | 61 | 81 | 93 | 98 | 
7 | P013.S.01.B.D04 (antibody, V domains shown, rabbit monoclonal antibody; also called P013.A.00088.B09) VH: QEQLKESGGRLVTPGGSLTLTCTVSGFSLSIYAMGWFRQAPGKGLEWIGDIYPGSDSTWYASWAKGRFTISKTSTTVDLKITSPTTEDTATYFCAREIDAGYVGYGFDLWGQGTLVTVSS VL: AQALTQTPSSVSAAVGGTVTINCQSSQSVYSDYLAWYQQKPGQSPKLLIYKASKLASGVPSRFKGSGSGTEFTLTISGVQSDDAATYYCQATYYSVGWYRAFGGGTEVVVK | 0 | 0.247 | 3.9 | 27 | 67 | 87 | 89 | 95 | 

More lines, now with the values ahead:

Row | mu-IL1RaP ELISA (OD) (mIL1RAcP-Fc [1]) | EC50 (rhIL-1RAcP/Fc Chimera [2]) [µg/mL] | hu-IL1RaP ELISA (OD) (rhIL-1RAcP/Fc Chimera [3]) | functional reporter gene assay (% inhibition), 0.04 µg/mL mAb [4] [%] | functional reporter gene assay (% inhibition), 0.2 µg/mL mAb [4] [%] | functional reporter gene assay (% inhibition), 1 µg/mL mAb [4] [%] | functional reporter gene assay (% inhibition), 5 µg/mL mAb [4] [%] | primary supernatant functional assay (% inh.), NF-kB luciferase reporter [4] [%] | EC50 (mIL1RAcP-Fc [5]) [µg/mL] | Binder
8 | 3.5 |  | 3.6 | 11 | 9 | 8 | -6 | -37 | 0.385 | P013.S.02.B.E04 (antibody, V domains shown, rabbit monoclonal antibody; also called P013.A.00088.A02) VH: QSLEESGGDLVKPGASLTLTCTASGFSLSSGGMSWVRQAPGKGLGWIGYINTGSGSTYYASWVNGRFTISKTSSTTVSLQMTSLTAADTATYFCAGGLPSDLWGPGTLVTVSS VL: DIVMTQTPSSVEAAVGGTVTIKCQASQSINSRLAWYQQKPGQPPKLLIYSASTLASGVSSRFKGSGSGTEFTLTISDLESADGATYYCLSHYLTSSSSYGDAFGGGTEVVVK
9 | 1.7 |  | 3.2 | 7 | -6 | 15 | 4 | 52 | 0.644 | P013.S.02.B.H04 (antibody, V domains shown, rabbit monoclonal antibody; also called P013.A.00029.F11) VH: QSVEESGGRLVKPDETLTLTCTVSGIDLSSYAMGWVRQAPGKGLEYIGIISSSGRTYYANWAKGRFTISKASSTTVDLKITSPTTEDTATYFCARLITVDYYIYDYFNLWGQGTLVTVSS VL: AYDMTQTPASVEAAVGGTVTIKCQASQSISSYLSWYQQKPGQPPKLLIYGASTLASGVPSRFKGSGSGTEYTLTISGVESDDAATYYCQQGYSYNNVDNTFGGGTEVVVK
10 | 0.4 |  | 0.1 | 15 | 5 | 11 | -2 | 40 | 0.044 | P013.S.02.B.F05 (antibody, V domains shown, rabbit monoclonal antibody; also called P013.A.00109.B04) VH: RSLEESGGDLVKPGTSLTLTCTASGFSFSGNYYMCWVRQAPGKGLEWIACIVVGSGGNTYYAGWAKRRFTISKTSSTTVTLQMTSLTAADTATYFCASGSYDDYGDYWYFTLWGQGTLVTVSS VL: AIDMTQTPSPASAGVGDTVTINCQASENIYNFLAWYQQKPGHSPKLLIYVASKLASGVPSRFKGSGSGTQFTLTISDVQSDDAATYYCQQTYRYNDGDTAFGGGTEVVVK

From US20190106487A1 (Sanofi, published 2019)
